Six molecules from patent publication US12441790B2, “Binding proteins to the human thrombin receptor, PAR4” (MONASH UNIVERSITY, priority 2017, dated 2025) can be followed below.

The test system of one assay is human whole blood. Kind of assay: Human whole blood thrombosis assay. Type of assay: cell-based. The conditions noted are these: 10 minute endpoint; 5A.RC3 100 μg/ml, hirudin 800 U/ml. How it is done:
Human whole blood collected in citrate (3.2%) was pre-incubated for 15 min at 37° C. with PE-conjugated anti-CD9 antibody (4 μg/mL) and an anti-fibrin antibody (5 μg/ml), and one of hirudin (800 U/ml), DMSO (1% v/v), PAR-1 antagonist E5555 (1 μM), anti-PAR4 antibody (0.2 mg/ml) or the combination of both PAR inhibitors. Whole blood was re-calcified with 5-7.5 mM CaCl2 (final concentration) to initiate coagulation, and drawn over glass microslides (1×0.1 mm internal diameter) coated with bovine type 1 collagen (250 μg/ml) at a fixed flow rate of 0.06 ml/min, resulting in a wall shear rate of 600 s^−1. Dual colour confocal fluorescence images were recorded at 488 and 561 nm excitation, collected through a 40× water immersion objective. Confocal z-stacks were continuously recorded for 2 min before modified, calcium-free Tyrode's buffer was flowed over the thrombi and z-stacks encompassing the entire height of the thrombus field were recorded over a period of 10 min. Platelet thrombi were defined using anti-CD9-PE and fibrin volume was quantified using average fluorescence of the thrombus field. Data were normalised against the hirudin baseline and expressed as a percentage of the control.
Thrombosis parameters including platelet deposition, thrombin activity, fibrin volume and ratio of fibrin per thrombus were measured in real-time over a period of 10 minutes in a whole blood thrombosis assay as described herein under conditions of coagulation.
Platelet deposition (PE-conjugated anti-CD9), thrombin activity (FRET-based thrombin probe), fibrin volume (Dylight650-conjugated anti-fibrin antibody) and the ratio of fibrin per thrombus at the 10 minute end-point is shown in FIG. 10A by confocal microscopy (to allow for volume measurements to be taken) using a Nikon Air with a 25× lens and 2× digital magnification.
The volume of human thrombi formed after 3 min was quantified by confocal microscopy in an ex vivo human whole blood thrombosis assay.

The target in assay [1] is T1, hPAR4 peptide (Homo sapiens, UniProt Q96RI0).
T1 construct: host or cells: synthetic peptide
T1 sequence (Q96RI0 35-54 limits assumed): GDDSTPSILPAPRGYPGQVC
Kind of assay: mAb capture SPR (Biacore, anti-mouse Fc capture). The class given is binding. How it is done:
(§1) Biacore analysis was performed on a Biacore T200 using two different methods either an anti-mouse Fc capture approach or using a similar method as described above using the ProteoOn system.
A series S CM5 sensor chip was activated with standard EDC/NHS amine coupling chemistry using the manufacturers recommended protocol with Goat anti-mouse IgG Fc. Anti-hPAR4 mAbs were captured at 1-2 ug/ml for 2 minutes at 10 ul/minute on flow cell 2 (FC2) and flow cell 1 (FC1) was used as a reference channel. […] Blank injections of buffer alone were also performed. All injections were performed in duplicate and in a random order. After each capture/injection/dissociation cycle the chip was regenerated with a 30 second injection of 0.1M Glycine pH2.0.
(§2) For the mAb capture method low levels of ligand mAb and analyte hPAR4 were used in an attempt to produce a 1:1 binding interaction, this method has been used successfully to measure kinetics and affinity KD's (Kamat V and Rafique A (2017) Analytical Biochemistry 530:75-86), despite using a whole IgG.
(§3) The kinetics of the binding interaction between the mAbs and hPAR4 was measured using Surface Plasmon Resonance (SPR; Biacore) by two different methods: 1. Anti-mouse Fc mAb capture method and 2. Streptavidin (SA) chip to capture biotinylated peptide. The ka(on) rate and kd(off) rates and KD were measured and fitted to a Langmuir model using the Biacore evaluation software.
Background: Surface plasmon resonance follows binding to a sensor surface in real time, without labels.

Assay [2] addresses T1, hPAR4 peptide. As to the kind of experiment: ELISA of purified mAbs on hPAR4 peptide. Type of assay: binding. As to conditions: dilutions of purified mAbs. The protocol:
as §3
The experiment was completed with purified mAbs diluted in PBS instead of hybridoma supernatants.
The reactivity of seven purified anti-hPAR4 mAbs was analysed by ELISA (see Table 4).
(In general: An ELISA detects its analyte on a solid surface through an enzyme-linked reagent.)

Assay [3] has as its target T2, hPAR4-biotinylated peptide (Homo sapiens, UniProt Q96RI0).
T2 construct: host or cells: synthetic peptide
As to the kind of experiment: SA chip biotin peptide SPR (Biacore, streptavidin capture). The class given is binding. How it is done:
as §1
A series S sensor chip SA was conditioned using the manufacturers recommended protocol and immobilised with 1 ug/ml hPAR4-biotinylated peptide on FC2 and hPAR1-biotinylated peptide as a control onto FC1. […] Blank injections of buffer alone were also performed. All injections were performed in duplicate and in a random order. After each capture/injection/dissociation cycle the chip was regenerated with a 30 second injection of 0.1M Glycine pH2.0.
as §2, §3

The subject of the next assay is human platelets. Kind of assay: Functional screen of hybridoma supernatants by platelet aggregation assay. The class given is cell-based. As to conditions: aggregation as % of control. The protocol:
Platelet aggregation was measured by light transmission aggregometry in a 96-well plate format. Human isolated platelets (2×10^8/ml) were pre-treated for 10 mins at 37° C. with dimethylsulfoxide (DMSO) (1% v/v), the PAR1 antagonist vorapaxar (90 nM), the anti-PAR4 antibody 5RC3 (20-100 μg/ml), or a combination of vorapaxar and 5RC3. Platelets were treated with one of thrombin (0.1 U/ml) and aggregation was analysed at 37° C. in a FLUOstar OPTIMA plate reader (BMG Labtech) using a 595 nm excitation filter, for a period of 50 min (10 read cycles with 5 min double orbital shake period between each read). Optical density was normalised against the blank (maximum) and unstimulated platelets (minimum) and expressed as % maximum.
Thrombin-induced platelet aggregation in the presence of a PAR1 antagonist (i.e. PAR4-dependent aggregation) is shown for 30 monoclonal antibody supernatants binding to human platelets. Antibody supernatant was mixed with human platelets (2×10^8 cells) at a 1:1 ratio.

T2 sequence (Q96RI0 with tags, fused parts or gaps limits assumed): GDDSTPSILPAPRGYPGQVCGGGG

For the molecule hirudin [reference compound], in the assay on human whole blood, the fibrin volume entry is recorded as “abolished”, the platelet deposition entry is recorded as “continued platelet deposition” and the thrombin activity entry is given as “abolished”.

B1: 5H.RF2: anti-PAR4 monoclonal antibody, IgG2a/K, SEQ ID NOs 107 and 108 (antibody, V domains shown)
VH: QVQLQQWGAGLLKPSETLALTCAVYGGSLSDYYWSWIRQPPGKGLEWIGEINHSGTTNYNPSLKSRVTISVDTSKKQFSLKLSSVTAADTAVYYCAIEYSNSRGYYYGMDVWGQGTTVTVSS
VL: DIQMTQSPSSLSASAGDRITITCRASQTISNYLNWYQQKPGKAPKLLIYAASSLQSGVPSRFSGSGSGTDFTLTISSLQPEDFASYYCRQNYNTPLTFGGGTKVEIK
modifications: VH of 5H.RF2; VL of 5H.RF2
In the assay with hPAR4 peptide [1], B1 had a ka of 58400 M⁻¹ s⁻¹ and a kd of 0.00227 s⁻¹. For the same molecule, in the assay with hPAR4 peptide [2], the “reactivity with hPAR4 peptide by ELISA” value is on record as “least reactive”. In assay [3], this molecule displayed a ka of 1.84e+06 M⁻¹ s⁻¹ and a kd of 0.00111 s⁻¹.

B2: MoB5H F2: hybridoma supernatant clone, second screening; likely parent of 5H.RF2 (antibody, V domains shown)
VH: QVQLQQWGAGLLKPSETLALTCAVYGGSLSDYYWSWIRQPPGKGLEWIGEINHSGTTNYNPSLKSRVTISVDTSKKQFSLKLSSVTAADTAVYYCAIEYSNSRGYYYGMDVWGQGTTVTVSS
VL: DIQMTQSPSSLSASAGDRITITCRASQTISNYLNWYQQKPGKAPKLLIYAASSLQSGVPSRFSGSGSGTDFTLTISSLQPEDFASYYCRQNYNTPLTFGGGTKVEIK
Take B2: in the assay with human platelets, the “Functional screen on hybridoma supernatants” value (“Functional screen” for short) is on record as “no”.

B3: MoB5H H4: hybridoma supernatant clone, second screening; likely parent of 5H.RH4 (antibody, V domains shown)
VH: QVQLQQWGAGLLKPSETLSLTCAVYGGSFSNYYWSWIHQPPGKGLEWIGEINHSGSTNYNPSLKSRVTISVDTSKKQFSLNLSSVTAADTAVYYCKVEHSSSSGHYYYGMDVWGQGTTVTVSS
VL: DIQMTQSPSSLSASVGDRVTITCRASQTISYYLNWYQQKPGKAPKLLIYAASRLQSGVPSRFSGSGSGTDFTLTISSLQPEDFTTYYCQQSYSTPLTFGGGTKVGIK
For the molecule B3, the “Functional screen” value with human platelets is “Yes (+) (aggregation between 50-80% of control)”.

B4: 5I.RG1: anti-PAR4 monoclonal antibody, IgG3/K, SEQ ID NOs 45 and 46 (antibody, V domains shown)
VH: QVQLQQWGAGLLKPSETLSLACAISSGSFSTYFWRWIRQPPGKGLEWIGEIIHTGSTTYNPSLKSRVTISVDTSKNQLSLKLSSVTAADTAVYYCAFEYSSSGGYYYGMDVWGQGTTVTVSS
VL: DIQMTQSPSSLSASVGDRVTITCRASQSISSYLNWYQQIPGKAPNLLIYAASSLRSGVPSRFSGSGSGTDFTLTISSLQPEDFATYYCQQTYSTPLTFGGGTKVEIK
modifications: VH of 5I.RG1; VL of 5I.RG1
As to B4, in the assay with hPAR4 peptide [1], the ka is 14000 M⁻¹ s⁻¹ and the kd is 0.00146 s⁻¹. For the same molecule, in the assay with hPAR4 peptide [2], the “reactivity with hPAR4 peptide by ELISA” value was “least reactive”. Further, in assay [3], the ka amounted to 1.85e+06 M⁻¹ s⁻¹ and the kd worked out at 0.000667 s⁻¹.

B5: MoB5I G1: hybridoma supernatant clone, second screening; likely parent of 5I.RG1 (antibody, V domains shown)
VH: QVQLQQWGAGLLKPSETLSLACAISSGSFSTYFWRWIRQPPGKGLEWIGEIIHTGSTTYNPSLKSRVTISVDTSKNQLSLKLSSVTAADTAVYYCAFEYSSSGGYYYGMDVWGQGTTVTVSS
VL: DIQMTQSPSSLSASVGDRVTITCRASQSISSYLNWYQQIPGKAPNLLIYAASSLRSGVPSRFSGSGSGTDFTLTISSLQPEDFATYYCQQTYSTPLTFGGGTKVEIK
As to B5, the “Functional screen” value in the assay with human platelets is reported as “Yes (+) (aggregation between 50-80% of control)”.
